# Measured values from paper PMC3085272.
# Biological target: Rac1-GMPPNP (UniProt P63000)
# Assay: equilibrium dialysis
substance,measurement,value
"ΔWRC (VCA-deleted WRC, containing WAVE1(1-186)) (from UniProt Q7L576;Q9Y2A7;Q92558;Q9NYB9;Q8WUW1) (complex)",Kd,1000 to 2000 nM
